This is an account of results in article PMC11074299.

For the experiment, the target named is Casp-8^tDED_F122G/L123G mutant (human) (UniProt Q14790). Kind of experiment: crystal structure; FA^FuL_H9G-C8^FGLG-CF^H7G complex; proteins individually expressed in E. coli, complex co-purified by Ni-NTA and SEC (80 mM NaCl, 20 mM Tris pH 8.0); hanging drop, 20 °C; MR-SAD; 3.1 Å; one 1:5:4 complex per asymmetric unit; FADD DD not visible.

A word on the stoichiometry N: it is the number of molecules, sites or subunits per partner or assembly. Turning to “Casp-8^tDED_F122G/L123G mutant (from UniProt Q14790 1-185) (domain or fragment)”, the stoichiometry N was 5.
